Measured values taken from article PMC7804310 (2021).

What was measured:
Test in all cases: SPR
[1] = target: T1, recombinant human Melanotransferrin MTf(20-709) extracellular domain (human, UniProt P08582-1 20-709, N-glycans at Asn 38, Asn 135 and Asn 515 (high mannose N-glycans favoured by kifunensine for crystallization))
T1 chain: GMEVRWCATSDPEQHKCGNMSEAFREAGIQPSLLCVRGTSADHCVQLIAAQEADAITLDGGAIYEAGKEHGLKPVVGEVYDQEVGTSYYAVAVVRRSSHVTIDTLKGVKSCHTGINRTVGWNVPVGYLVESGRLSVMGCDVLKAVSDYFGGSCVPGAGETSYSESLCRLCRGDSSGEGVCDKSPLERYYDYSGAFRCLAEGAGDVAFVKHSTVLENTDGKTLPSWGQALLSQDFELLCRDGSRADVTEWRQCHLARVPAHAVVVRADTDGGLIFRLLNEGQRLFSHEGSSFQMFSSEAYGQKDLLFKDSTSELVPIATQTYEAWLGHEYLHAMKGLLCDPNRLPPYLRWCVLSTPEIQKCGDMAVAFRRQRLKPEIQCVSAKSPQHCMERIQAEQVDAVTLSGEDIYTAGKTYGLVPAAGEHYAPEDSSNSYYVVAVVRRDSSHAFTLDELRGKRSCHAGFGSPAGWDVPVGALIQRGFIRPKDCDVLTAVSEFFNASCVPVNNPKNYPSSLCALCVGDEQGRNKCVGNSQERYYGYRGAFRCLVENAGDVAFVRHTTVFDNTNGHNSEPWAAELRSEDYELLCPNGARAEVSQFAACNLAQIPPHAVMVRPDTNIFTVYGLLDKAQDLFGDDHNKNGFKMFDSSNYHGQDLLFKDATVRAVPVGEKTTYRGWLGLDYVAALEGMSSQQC

[2] = target: T1, recombinant human Melanotransferrin …
[3] = target: recombinant cynomolgus monkey MTf(20-709) extracellular domain (cynomolgus monkey)

koff [1]: 0.00048 s⁻¹ | Kd [2]: 1 nM | Kd [3]: 1.1 nM | koff [3]: 0.00047 s⁻¹
B1: SC57.32 Fab fragment (Fab, V domains shown)
VH: QVQLQQSGAELMKPGASVKISCKATGYTFSNYRIEWIKQRPGHGLEWIGEILPRGGNTNYNEKFKGKATFTADTSSNTAYMQLTSLTSEDSAVYYCARDDGYYGRFAYWGQGTLVTVSA
VL: DIQMTQTTSSLSASLGDRVTISCRASQDISNYLNWYQQKPDGTVKLLIFYTSRLHSGVPSRFSGSGSGTDYSLTISNLEQEDFATYFCQQGNTLPPTFGGGTKLEIK
